Common to all, as to conditions: 20 nM; 72 h
Series [1] relates to MCF10A. Briefly: percent viability (nuclei count relative to siNT); higher = more viable cells. The procedure:
(§1)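 After 72 h, cells were fixed and stained with Hoechst and anti-fibrillarin, and nucleoli per nucleus were counted with CellProfiler. Values are plate-adjusted percent effect for the one-nucleolus and 5+ nucleoli phenotypes, normalised to siNT (0%) and to the positive controls siNOL11 or siKIF11 (100%), as the mean of biological triplicates. Percent viability is the nuclei count relative to siNT.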

For series [2], the system named is MCF10A. Kind of series: 5+ nucleoli phenotype percent effect (relative to siNT 0% and siKIF11 100%); higher = more cells with five or more nucleoli. The procedure:
as §1

Series [3] concerns MCF10A. Kind of series: one-nucleolus phenotype percent effect (relative to siNT 0% and siNOL11 100%); higher = more cells with one nucleolus (ribosome biogenesis inhibition). How it is done:
as §1

These results are taken from the supplement of paper PMC10899765.

For UCCGUCUCAGUUACUUUAUAGC [hsa-miR-340-3p], the percent viability with MCF10A [1] was found to be 74%. Besides, in the series on MCF10A [2], the “5+ nucleoli phenotype percent effect” value is 26.3%. Also, the “one-nucleolus phenotype percent effect” value in the series with MCF10A [3] was 1.48%.
With AACCCGUAGAUCCGAUCUUGUG [hsa-miR-99a-5p], the percent viability with MCF10A [1] stood at 48.2%. Further, the “5+ nucleoli phenotype percent effect” value in the series on MCF10A [2] came to 1.63%. Moreover, the “one-nucleolus phenotype percent effect” value in the series with MCF10A [3] was determined as 7.7%.
For “AAGUUGGCUGCAGUUAAGGUGG [hsa-miR-4715-5p]”, in that order: 22.1%, -13.4% and -2.6%.
With “GUCCCUCUCCAAAUGUGUCUUG [hsa-miR-642a-5p]”, the percent viability in the series with MCF10A [1] stood at 120%. The “5+ nucleoli phenotype percent effect” value with MCF10A [2] is 55.6%. In addition, in the series on MCF10A [3], the “one-nucleolus phenotype percent effect” value is -27.9%.
Consider GCGGGGCUGGGCGCGCG [hsa-miR-4508], for which, in the series on MCF10A [1], the percent viability came out at 90.5%. Besides, the “5+ nucleoli phenotype percent effect” value in the series with MCF10A [2] was determined as 29.5%. In addition, the “one-nucleolus phenotype percent effect” value in the series with MCF10A [3] is -26.4%.
As for UGUUCAUGUAGAUGUUUAAGC [hsa-miR-1206], the percent viability in the series on MCF10A [1] stood at 95.8%. The “5+ nucleoli phenotype percent effect” value with MCF10A [2] was found to be 42.5%. For the same sequence, the “one-nucleolus phenotype percent effect” value with MCF10A [3] is -22.5%.
As to “UACAGCCCUGUGAUCUUUCCAG [hsa-miR-6856-3p]”, the percent viability with MCF10A [1] came to 74.9%. Moreover, in the series on MCF10A [2], the “5+ nucleoli phenotype percent effect” value was 21%. The “one-nucleolus phenotype percent effect” value with MCF10A [3] is -21%.
In the same order, the values of CUGGACUUUGAUCUUGCCAUAA [hsa-miR-8058] are 58.9%, -11.1% and 32.1%.
For GUGGGGGAGAGGCUGUC [hsa-miR-1275], in that order: 20.5%, -28.2% and 43%.
In the case of “AGGAGCUAGCCAGGCAUAUGCA [hsa-miR-4633-3p]”, the percent viability with MCF10A [1] came out at 15.3%. Besides, in the series on MCF10A [2], the “5+ nucleoli phenotype percent effect” value is -40.1%. Moreover, in the series with MCF10A [3], the “one-nucleolus phenotype percent effect” value came out at 37.9%.
For the sequence AGCAUACACCUGUAGUCCUAGA [hsa-miR-5689], in the series with MCF10A [1], the percent viability was 66.7%. Besides, in the series on MCF10A [2], the “5+ nucleoli phenotype percent effect” value is 2.26%. Besides, in the series on MCF10A [3], the “one-nucleolus phenotype percent effect” value came to 0.904%.
As to GACACAUGACCAUAAAUGCUAA [hsa-miR-4643], in the series on MCF10A [1], the percent viability amounted to 109%. Also, the “5+ nucleoli phenotype percent effect” value in the series on MCF10A [2] stood at 36.8%. In the series on MCF10A [3], the “one-nucleolus phenotype percent effect” value is -11.7%.
With UCUAUACAGACCCUGGCUUUUC [hsa-miR-1284], the percent viability with MCF10A [1] worked out at 75.8%. Besides, the “5+ nucleoli phenotype percent effect” value in the series on MCF10A [2] is 31.3%. Moreover, in the series on MCF10A [3], the “one-nucleolus phenotype percent effect” value was -16.5%.
Consider “UGCAGGGGUCGGGUGGGCCAGG [hsa-miR-6722-3p]”, for which the percent viability in the series on MCF10A [1] was found to be 45.7%. Also, in the series with MCF10A [2], the “5+ nucleoli phenotype percent effect” value was -25.2%. For the same sequence, the “one-nucleolus phenotype percent effect” value in the series on MCF10A [3] came to 9%.
Turning to CGGGGCCAGAGCAGAGAGC [hsa-miR-6845-5p], the percent viability with MCF10A [1] came out at 53.6%. For the same sequence, the “5+ nucleoli phenotype percent effect” value in the series on MCF10A [2] amounted to 11.6%. Besides, the “one-nucleolus phenotype percent effect” value with MCF10A [3] was determined as 9.59%.
On to UAGGACUGUGCUUGGCACAUAG [hsa-miR-3169], for which, in the series on MCF10A [1], the percent viability was 27.4%. In addition, the “5+ nucleoli phenotype percent effect” value in the series on MCF10A [2] turned out to be 20%. Further, the “one-nucleolus phenotype percent effect” value with MCF10A [3] worked out at 1.07%.
As for “UUGGGAUGGUAGGACCAGAGGGG [hsa-miR-6728-5p]”, the percent viability with MCF10A [1] was 50.3%. In the series on MCF10A [2], the “5+ nucleoli phenotype percent effect” value amounted to 24.3%. Further, the “one-nucleolus phenotype percent effect” value in the series with MCF10A [3] was -15.8%.
For the sequence UUCACAGUGGCUAAGUUCCGC [hsa-miR-27a-3p], the percent viability with MCF10A [1] amounted to 118%. In addition, the “5+ nucleoli phenotype percent effect” value in the series with MCF10A [2] is -6.22%. In addition, in the series with MCF10A [3], the “one-nucleolus phenotype percent effect” value was -7.64%.
Turning to UCAGUGUCUGGAUUUCCUAG [hsa-miR-6733-3p], the percent viability in the series with MCF10A [1] is 70.7%. In the series on MCF10A [2], the “5+ nucleoli phenotype percent effect” value was -16.2%. The “one-nucleolus phenotype percent effect” value with MCF10A [3] was -2.06%.
On to GGGGAGGUGUGCAGGGCUGG [hsa-miR-6799-5p], for which, in the series with MCF10A [1], the percent viability was 93.2%. Further, the “5+ nucleoli phenotype percent effect” value in the series with MCF10A [2] is 37%. Also, in the series on MCF10A [3], the “one-nucleolus phenotype percent effect” value is -29.7%.
